{
  "source": "patent US20260097122A1",
  "about": "(AUTOLUS, published 2026)",
  "binders": {"B1": {"name": "CD19 CATCAR (second-generation CD19 CAR, aCD19cat-CD8STK-41BBZ) (other)", "chain": "QVQLQQSGPELVKPGASVKISCKASGYAFSSSWMNWVKQRPGKGLEWIGRIYPGDEDTNYSGKFKDKATLTADKSSTTAYMQLSSLTSEDSAVYFCARSLLYGDYLDYWGQGTTLTVSSGGGGSGGGGSGGGGSQIVLTQSPAIMSASPGEKVTMTCSASSSVSYMHWYQQKSGTSPKRWIYDTSKLASGVPDRFSGSGSGTSYFLTINNMEAEDAATYYCQQWNINPLTFGAGTKLELKRSDPTTTPAPRPPTPAPTIASQPLSLRPEACRPAAGGAVHTRGLDFACDIYIWAPLAGTCGVLLLSLVITLYCKRGRKKLLYIFKQPFMRPVQTTQEEDGCSCRFPEEEEGGCELRVKFSRSADAPAYQQGQNQLYNELNLGRREEYDVLDKRRGRDPEMGGKPRRKNPQEGLYNELQKDKMAEAYSEIGMKGERRRGKGHDGLYQGLSTATKDTYDALHMQALPPR", "notes": "Chimeric antigen receptor expressed on the surface of transduced T cells: CAT19 scFv, CD8 stalk spacer and transmembrane domain, 4-1BB-CD3 zeta endodomain; also called CAT19CAR; CATi9CAR"}},
  "biological_target": "T1, recombinant soluble CD22 ectodomain (human, UniProt P20273 20-687)",
  "T1 construct": "extracellular domain; Staining reagent used to detect the 9A8 CAR on T cells; also called soluble recombinant CD22 ectodomain",
  "T1 sequence (looked up)": "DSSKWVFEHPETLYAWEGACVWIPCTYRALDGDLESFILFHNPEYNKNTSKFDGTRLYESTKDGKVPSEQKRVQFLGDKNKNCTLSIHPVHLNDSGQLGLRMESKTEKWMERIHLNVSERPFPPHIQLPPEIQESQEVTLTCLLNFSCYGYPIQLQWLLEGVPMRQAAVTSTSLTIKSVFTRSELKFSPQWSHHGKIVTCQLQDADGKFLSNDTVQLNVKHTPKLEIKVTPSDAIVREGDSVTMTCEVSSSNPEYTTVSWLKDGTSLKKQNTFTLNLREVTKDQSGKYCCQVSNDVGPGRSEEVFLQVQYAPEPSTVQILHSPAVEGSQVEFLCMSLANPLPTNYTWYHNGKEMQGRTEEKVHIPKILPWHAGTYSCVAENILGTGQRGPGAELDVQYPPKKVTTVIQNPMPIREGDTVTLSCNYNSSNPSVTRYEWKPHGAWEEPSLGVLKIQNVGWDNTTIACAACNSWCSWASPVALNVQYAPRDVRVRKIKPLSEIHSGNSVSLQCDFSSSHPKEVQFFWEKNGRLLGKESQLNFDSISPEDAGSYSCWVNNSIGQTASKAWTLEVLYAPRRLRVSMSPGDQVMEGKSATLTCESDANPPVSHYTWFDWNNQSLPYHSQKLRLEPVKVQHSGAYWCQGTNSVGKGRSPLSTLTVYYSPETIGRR",
  "experiment": "flow cytometry of CD19 CATCAR T cells stained with anti-idiotype and soluble recombinant CD22 ectodomain [cont.) F]",
  "from_the_text": "FIG. 4. AUTO1/22 CAR T cells enhanced activity in vivo. A) Schedule of the in vivo model. B) and C) NSG mice were intravenously injected with 1×10⁶ Nalm-6 WT (B) or Nalm-6 CD19KO (neg) cells (C), and treated with non-transduced (NT), AUTO1 or AUTO1/22 normal donor T cells. Serial bioluminescence imaging was taken. All cells expressed HA-tagged firefly Luciferase. D) and E) Spider plot showing bioluminescence flux for each mouse over time; Nalm-6 WT (D) or Nalm-6 CD19KO (neg) cells (E). F) In vivo expansion of the different CAR T cell populations. Differential engraftment of different CAR T cell populations. The proportion of the different subpopulation of CAR T cells was determined by staining for AUTO1 with anti-idiotype and 9A8CAR with soluble recombinant CD22 ectodomain. […]\nNext, the function of CD19 CAR T cells (AUTO1) and CD19/22 co-transduced CAR T cells (AUTO1/22) in vivo was determined. […] NALM6 cells were first engrafted in NSG mice by tail-vein injection, and their engraftment determined by bioluminescence imaging (BLI). […] NALM6 burden was measured sequentially using BLI. […] NALM6 burden and CAR T-cell engraftment was determined by flow cytometry.\nFinally, the proportion of AUTO1, CD22CAR and AUTO1/22 CAR T cells engrafted in mice at sacrifice was determined by flow-cytometry of marrow aspirate.",
  "data": [
    {"binder": "B1", "values": [
      {"measurement": "binding result", "value": "no binding"}
    ]}
  ]
}
